# Measured values published in the DeepSol protein solubility set.
# Test: soluble on expression in E. coli; label from the status in PepcDB or PDB records
row,Sequence,soluble on expression in E. coli
1,MGSDKIHHHHHHMAELIFSRETDCRYCYKCLRNCPVKAISFKSGKSTVLEEECVFCGSCLDICPQNARSYRKDVERFLSLSEPFLVSIAPSFFAYFENPLKVIGVLKEMGAVVVQETAVGAEIVSRRYEEVFEKHSGPFITTACPVVVNLAEKHFPNVLKYFAPVDSPLMTHAKFLKTRYGDFPIVFVGPCIAKKSESDLVDVALTFEELEEILEEREGKEALPDGPYPDRARFYPTTDGIGYTVSVPWEKKLVVEGVENLMRVFSRIDEYKSVFIEASACYGSCLNGPVMKKKSNGKERLLEWQKKLPKEPK,not soluble
2,MGSDKIHHHHHHADSPDAFVPPTRLTRIAFDRRSAAFGQLDFLLGEIGRRMQERMEVVRLTPQRALDIGCGHGQGLAGLRARFPDAQIAGLDISGVMLAEAGQRDPQRRPGWVGRLLGKRPLFDLVQGDLATLPFAPGSFDLLWSNLALHWHPEPHRVFPEWHRVTRDDGLVMFSLFGPDTLRELRTAFEEVDTATHTLRFVDMHDIGDMLVHGGWSTPVMDMETLTVTYESPEMLLREVQAFGGLRAHPALRRAGLHGRRWHQAVCAALERLRNADGVIPLTFEIVYGHAWKLPPRGAQQVDELGRAVVPLDKIGRARPRR,not soluble
3,MEDELPIIKGKKVILFAPTFRGSGHGTAHYPFFKIDFERLARYCEKNNAVVLFKMHPFVKNRLNIADKHKQYFVDVSDFREVNDILFITDLLISDYSSLIYEYAVFKKPMIFYAFDLEDYITTRDFYEPYESFVPGKIVQSFDALMDALDNEDYEGEKVIPFLDKHFKYQDGRSSERLVRNLFGS,soluble
4,MSLDYGINFWSDNDFIIEDGQVKINYKTKPAIIDIVKKVREEGYRGPLLLRFPHLIKKQVDKIFTHFETSIKQYHYKGQFKAVFPLKVNQFPNFVLPLVELSQNRCYGLEAGSKAELIIAMAYTNKGSPITVNGFKDKEMISLGFIAANMGHEITLTIEGLNELETIIEVAEEMGKPCPNIGLRIRLHSSGIGIWAKSGGINSKFGLTSTELLEGIRLLEKHKLIEKFTMIHFHIGSQISDISPLKKAMREAGNIYAELRKMGAKNLKSVNIGGGLAVEYTQHEGSPNRNYTLDEFAGDVVFSLKEIAKNKKEPEPDIYIESGRYIAASHALLVAPVLELFSQEYDEKALHLKDKNPQLIEELNELYNTVNEKYAIEYLHDSLDHMESLLTLFDLGYIDLQDRSNTEILVHLIIKKVIKILKHKNHSDIIRIQEQVQERYLLNCSFFQSLPDYWGLEQSFPVMPLDRLNKRPTRSASLWDITCDSDGEIGFDLNKPLFLHDVDVTTEEYFLGFFLVGAYQEVLGMRHNLFTHPTELSVEFEEDGTHSVTNLLEAQTILDVLDDLDYDEGHHHHHH,not soluble
5,LKVLKRFDIETDYGSAIIADTITGRIEYTVATGGCIFPEVSRTIQTLENMGASVFIASGDSRKFIERLGNIVGVQNKCLMPEAHHKLKRDLILNLKQDGYTVIMVGDASNDILAMEESDLSVITLQNGNVSKKALETAQIKIENISEI,not soluble
6,MEFNLHAVSSEEKERDFDVVIVGAGAAGFSAAVYAARSGFSVAILDKAVAGGLTAEAPLVENYLGFKSIVGSELAKLFADHAANYAKIREGVEVRSIKKTQGGFDIETNDDTYHAKYVIITTGTTHKHLGVKGESEYFGKGTSYCSTCDGYLFKGKRVVTIGGGNSGAIAAISMSEYVKNVTIIEYMPKYMCENAYVQEIKKRNIPYIMNAQVTEIVGDGKKVTGVKYKDRTTGEEKLIETDGVFIYVGLIPQTSFLKDSGVKLDERGYIVVDSRQRTSVPGVYAAGDVTSGNFAQIASAVGDGCKAALSLYSDSISKK,soluble
7,MINPIASLSPLDGRYAQSVEALRPIFSEYGLMKARVKVELNWLKALAAEPKIAEVPPFSAETLAEIDTVIENFSLEDAAAVKAIEATTNHDVKAIEYWLKKRFAEVPEVAAVSEFIHFACTSEDINNLSHALMLQEAREAVLLPKLAEIIEKLTAMAHDLAAVPMMSRTHGQPATPTTLGKETANVVYRLQRQFKNLQAQEFLGKINGAVGNYNAHMVAYPDVDWETHCRNFVEISLGLTFNPYTIQIEPHDYMAEFFQTLSRINTILIDFNRDVWGYISLGYFKQKVKAGEVGSSTMPHKVNPIDFENSEGNLGMANAVLGFLSEKLPISRWQRDLTDSTVLRNMGVGVGYAVLGFAAHLRGLNKLEPNPAALAADLDATWELLAEPIQTVMRRYGVANPYEKLKDLTRGKGGITPEVLKGFIGLLEIPAEAKAKLLELTPALYVGKAEALAKRI,not soluble
8,MSLQMDQYLAQPLMIQEAQLVTIASGTTLSRELAQLTEQAWIQDSFVAEWVRRFHPELSKIKAGTYKLQPDMSLEQALALLVSGKEHQFSITFVEGSRFQEWRDILASNENITQQLTGLTEIDIAKALGIEHEKLEGLFLAETYHFTKGTSDVEILKRANQKLEKFLQVTWEHRQEGLPIQTPYEALILASIIEKETSIAEERERIAAVFINRLNKRMRLQTDPTVIYGMGETYDGNIRKKDLRARTPYNTYVINGLPPTPIAMPGEASIYAALNPEQSDYLYFVASGEGGHNFSKTLADHNRAVRAYLKKLRTKQEGHHHHHH,soluble
9,MSESQLRKGAVELIVLGLLSSRPSYGGQLVERFREEAGLEISTGTLYPLLARLRKSGLVVTAWEESPVGPPRKIYKLAKPGKNRLLQMRREWEALDCAVKRTTQKGIR,not soluble
10,MADHNDRGRQGEEIALKHLRQQGYQIEALNWQSGRRELDIVASTSRELVVVEVKTRTEGFLLAPEEAVDARKRRLISESAHHYVRMYAIDLPVRFDVISVVLSADGSCKRIEHRENAFPLLLKRSQRSTPRRRRL,not soluble
11,GPGSMVACTRLRRTQKVAKQKTETASNSHPRTSFLRRGRSTDCDIGALHVAATRVTLSVSHYATLLEGSVICVCFGFRLAAAAATNQLASSRLYRVPFAPLTSGLTNEKVLLRWSVAMSRKDAERKLTEDDCLTSSQQYDPQLIFYVPLRRKGYQAIDASAFVRCGGLRVVDISGNRLSTLSGLESVAPQLTFLNAAENSLHDIGALVTCAALERCMLEGNKLASVDSLQPLVSLPCLAELVLQRHVPLDDAAIGSGSPEQSSDKLLLLDNPVCRDAVAYREHFLAKMSHVRWVDGVSTYLRASSLAESTTTESHDAKENSTKAIVDAAIRSFQSIRVQMTATVSEETTLRHQLERAADRCKPSTVTVAARTP,not soluble
12,EVQLVESGGGLVKPGGSLRLSCAASGFTFSSYSMNWVRQAPGKGLEWVSSISSSSSYISYADSVKGRFTISRDNAKNSLYLQMNSLRAEDTAVYFCARDYDFWSAYYDAFDVWGQGTMVTVSSASTKGPSVFPLAPSSKSTSGGTAALGCLVKDYFPEPVTVSWNSGALTSGVHTFPAVLQSSGLYSLSSVVTVPSSSLGTQTYICNVNHKPSNTKVDKKVEPKSCAADEVDHHHHHH,soluble
13,MEILQFIGYGNMAQAILEGAHEILSKRFILEITGRNPEKIAPFLQEKNIQAQIVPYKDAIDIHQKFVFLLFKPYNLKDFNYQGQAKSVLSALAGVGFKALSDAIDSLHYLKCMPNIASKFALSSTAVCEKSPMPLISQKALSVIESFGNCVRVGHEELVDASVATNGSALAFLSLVANSLKDAGIREGLNARGSLELVKMSFKGFAKLLEKERPEMIIEQICTPKGATIEGLSVLEKKGVRGAFIEACHKSVKKMRLLEHHHHHH,not soluble
14,MHNNENVSGISAYLLGLIIGDGGLYKLKYKGNRSEYRVVITQKSENLIKQHIAPLMQFLIDELNVKSKIQIVKGDTRYELRVSSKKLYYYFANMLERIRLFNMREQIAFIKGLYVAEGDKTLKRLRIWNKNKALLEIVSRWLNNLGVRNTIHLDDHRHGVYVLNISLRDRIKFVHTILSSHLNPLPPE,soluble
15,GKKTRSVKSCVGKEFCRFGTQYTTRLGIRLEKTFEYIDTPHKFKMGVSGCPRSCVESGVKDFGVISVENGYQIFIGGNGGTDVTVGKLLTTVETEDEVIQLCGALMQYYRETGVYAERTAPWLERMGFENVKNVLLNQ,not soluble
16,MAHHHHHHMESGKNAHRLNRIFRKPKTMVAPRAWRPAADGEGERQQPFSGVSLQRINAMISELSEEERTRALAQQDPPTVVQEELAKRAARFGLTIERADAGNNEKTASSEITPEVQAVFQRRMERFGQSAAEEAMQKRVARFGNAATSAEGPGVELKLSEADREAMQRRQSRFGG,soluble
